Data reported in US20170174769A1 (Regeneron, published 2017).
Substitutions are numbered along the chain they refer to. Names may count otherwise.

T1: full-length human KLB on HEK293/hKLB/SRE-luc cells (human, UniProt Q86Z14 1-1044)
T1 construct: amino acids 1-1044 of NP_783864.1
T1 sequence: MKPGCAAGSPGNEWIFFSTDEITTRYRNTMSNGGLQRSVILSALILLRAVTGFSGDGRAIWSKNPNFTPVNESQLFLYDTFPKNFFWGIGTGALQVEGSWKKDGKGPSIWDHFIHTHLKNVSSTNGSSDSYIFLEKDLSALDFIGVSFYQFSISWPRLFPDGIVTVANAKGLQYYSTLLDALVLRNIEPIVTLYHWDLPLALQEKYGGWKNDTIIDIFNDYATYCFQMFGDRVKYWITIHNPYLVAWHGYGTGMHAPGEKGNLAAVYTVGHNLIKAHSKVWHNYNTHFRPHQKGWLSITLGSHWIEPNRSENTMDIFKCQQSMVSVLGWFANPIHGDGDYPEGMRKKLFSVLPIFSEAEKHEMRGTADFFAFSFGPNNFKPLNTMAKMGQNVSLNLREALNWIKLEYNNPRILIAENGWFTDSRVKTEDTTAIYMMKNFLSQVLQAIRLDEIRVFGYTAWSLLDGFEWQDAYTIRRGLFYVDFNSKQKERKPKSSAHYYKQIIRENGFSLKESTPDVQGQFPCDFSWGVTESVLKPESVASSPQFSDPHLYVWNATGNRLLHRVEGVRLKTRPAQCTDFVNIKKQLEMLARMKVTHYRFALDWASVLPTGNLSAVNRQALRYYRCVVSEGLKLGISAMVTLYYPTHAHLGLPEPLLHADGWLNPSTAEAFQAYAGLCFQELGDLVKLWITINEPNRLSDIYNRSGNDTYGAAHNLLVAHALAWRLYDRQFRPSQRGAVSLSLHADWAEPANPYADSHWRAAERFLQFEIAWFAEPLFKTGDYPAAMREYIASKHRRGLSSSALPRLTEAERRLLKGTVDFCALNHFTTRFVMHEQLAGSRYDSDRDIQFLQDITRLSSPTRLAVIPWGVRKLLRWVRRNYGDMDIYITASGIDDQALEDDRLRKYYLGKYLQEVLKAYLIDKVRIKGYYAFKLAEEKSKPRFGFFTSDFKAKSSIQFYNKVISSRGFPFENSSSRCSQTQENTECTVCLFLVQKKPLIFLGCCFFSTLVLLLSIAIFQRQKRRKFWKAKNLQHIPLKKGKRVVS

B1: H2aM8832N (antibody, V domains shown)
VH: QVQLVESGGGVVQPGRSLRLSCAASGFTFSRYGMHWVRQAPGKGLEWVAVIWYDGTNKYYEDSLKGRFTISRDNSKNTLYLQMNSLRAEDSAVYYCARDQGKYIDYWGQGTLVTVSS
VL: AIQMTQSPSSLSASVGDRVTITCRTSQDIRNDLGWYQQKPGKVPNLLIYAASTLQSGVPSRFSGSGSGTDFTLTISSLQPEDFATYYCLQDYNYPFTFGPGTKVDIK
notes: mouse IgG2 Fc (H2aM prefix)
B2: H4H8881P (antibody, V domains shown)
VH: QVQLVQSGAEVKKPGASVKVSCKASGYTFTSYVIHWVRQAPGQRLEWMGWSNAANGDTKYSQEFQDRVTFTRDTSASTAYMELSSLRSEDMAVYYCARWNWNYGAFDIWGQGTMVTVSS
VL: DIQMTQSPSSLSASVGDRVTITCQASQDINNYLHWYQQKSGKAPNLLIYDASILETGVPSRFSGSGSGTDFTFTISSLQPEDIATYYCQQYDNLPYTFGQGTKLEIK
notes: human IgG4 Fc (H4H prefix)
B3: H1M8115N (antibody, V domains shown)
VH: QVQLVQSGAEVKKPGSSVKVSCKASGGTFSTYEISWVRQAPGQGLEWMGGIIPVFGTTHYAQKFQDSVTITTDESTGTAFMELSSLKSEDTAVYYCARGGAGGDNWGQGTLVTVSS
VL: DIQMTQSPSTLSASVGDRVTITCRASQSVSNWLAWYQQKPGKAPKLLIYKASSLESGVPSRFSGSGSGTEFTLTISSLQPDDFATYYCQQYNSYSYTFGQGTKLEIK
notes: H1M Fc prefix (mouse Fc)
B4: H2aM8109N (antibody, V domains shown)
VH: QVQVVESGGGVVQPGRSLRLSCAASGFTFSSYGLHWVRQAPGKGLEWVAVIWHDGSHKYYADSVKGRFTISRDNSKNTLYLQMNSLRAEDTAVYYCARDGIPVAEDYYFYGMDVWGQGTTVTVSS
VL: DIQMTQSPSSLSASVGDRVTITCRASQGIRNDLGWYQQKPGKAPKRLIYAASSLQSGVPSRFSGSGSGTEFTLTISSLQPEDFAIYYCLQHNSLTFGGGTKVEIK
notes: mouse IgG2 Fc (H2aM prefix)
B5: H1H8899P (antibody, V domains shown)
VH: EVQLVESGGGLVQPGGSLRLSCAASGFTFSSHWMSWVRQAPGKGLEWVANIKQDGSEKYYVDSVKGRFTISRDNAKNSLYLQISSLRAEDTAVYYCASNWNFLFDFWGQGTLVTVSS
VL: not shown
B6: H4H8852P (antibody, V domains shown)
VH: QVQLQESGPGLVKPSETLSLTCTVSGGSISSYYWSWIRQPPGKGLEWIGYIYSSGIIKYNPSLKSRVTISADTSKNQFSLKLSSVTAADTAVYYCARHGIFGVMEYFQRWGQGTLVTVSS
VL: DIQMTQSPSSLSASIGDRVTITCQASQDIGNFLNWYQQKPGKAPTLLIYDASNMETGVPSRFSGSGSGTYFTFTISSLQPEDVATYYCQQYDNLPLTFGGGTKVEIK
notes: human IgG4 Fc (H4H prefix)
B7: H4H8856P (antibody, V domains shown)
VH: B6 VH with G49A, S53Y, I57T
VL: B6 VL with G30S, A51V, S67Y, Y70D, F73L, Q79K, V83I, L94I
notes: human IgG4 Fc (H4H prefix)
B8: H4H8871P (antibody, V domains shown)
VH: B6 VH with G27A
VL: B6 VL with Q37H, S63R, T74I
notes: human IgG4 Fc (H4H prefix)
B9: H2aM8093N (antibody, V domains shown)
VH: QVQLVQSGAEVKRPGSSVKVSCKASGDTFSTYAISWVRQAPGQGLEWMGGIIPVFGTTNYAQKFQDRVTITTDESTRTAYMELSSLRSEDTAVYYCAGIAGPDYWGQGTLVTVSS
VL: DIQMTQSPSSLSASVGDRVTITCRASQGIRNYLAWFQQKPGKAPKSLIYLATSLQSGVPSKFSGSGSGTDFTLTISSLQPEDFATYYCQQYYSYPWTFGQGTKVEIK
notes: mouse IgG2 Fc (H2aM prefix)
B10: H4H8859P (antibody, V domains shown)
VH: EVQLVESGGSVVRPGGSLRLSCAASGFTFDVYGMSWVRQAPGKGLEWVSGINWIGGSTGYADSVKGRFTISRDNAKNSLYLQMNSLRAEDTALYYCTREEDYWGQGTLVTVSS
VL: DVVMTQSPLSLAVTLGQPASISCRSSQSLVYSDGNTYLNWFQQRPGQSPRRLFYKVSNRDSGVPDRFSGSGSGTDFTLKISRVEAEDVGIYYCMQGIKWPLTFGGGTKVEIK
notes: human IgG4 Fc (H4H prefix)
B11: H4H8870P (antibody, V domains shown)
VH: B10 VH with S10G, T28K, A40L, N52S, I54T, T58S, A75G, N77K
VL: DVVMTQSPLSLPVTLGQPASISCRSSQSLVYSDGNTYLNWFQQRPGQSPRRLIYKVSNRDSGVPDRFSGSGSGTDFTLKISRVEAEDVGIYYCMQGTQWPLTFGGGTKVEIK
notes: human IgG4 Fc (H4H prefix)
B12: H4H8878P (antibody, V domains shown)
VH: QVQLVESGGGVVQPGRSLRLSCAASGFTLNTYGMHWIRQTPGKGLEWVSLISYDETKEYYVDSVKGRFTISRDNSKNTLYLQMNSVRVEDTAVYYCAKPLTGSTDYYYGLDVWGQGTTVTVSS
VL: DIQMTQSPSYVSASVGDRVIITCRASQDISSWLAWYQQKPGKAPKLLIYVTSSLESGVPSRFSGSGSGTDFTLTISGLQPEDFATYYCQQVKSFPPTFGPGTKVDIK
notes: human IgG4 Fc (H4H prefix)
B13: H2aM8098N (antibody, V domains shown)
VH: QLQLQESGPGLVKPSETLSLTCTVSGGSISSSNYYWDWIRQTPEKGLEWIGSIHYSGTSYYNPSLKSRVTISVDTSKNQFSLKLRSVTAADAAVYYCARQTSVYWYFDIWGHGTLVTVST
VL: EIVLTQSPGTLSLSPGEGATLSCRASQSVRNNYLAWYQQKPGQAPRLLIYGASSRAIGIPDRFSGSGSGTDFTLTISRLEPKDFVVYYCQQYGGSLFTFGPGTKVDIK
notes: mouse IgG2 Fc (H2aM prefix)
B14: H4H8837P (antibody, V domains shown)
VH: QVQLVESGGGVVQPGRSLRLSCAASGFTFNSYAMHWVRQAPGMGLEWVAVISSDGSNKYYADSVRGRFTVSRDNSKNTLYLQMNSLRSEDTAVYYCAKDGRGYSSFSHFGMDVWGQGTTVTVSS
VL: DIQMTQSPSTLSASVGDRVTITCRASQSIGSWLAWYQQKPGKAPKLLIYKTSSLESGVPSRFSGSGSGTEFTLTISSLQPDDFASYYCQQYNSYSFGQGTKVEIK
notes: human IgG4 Fc (H4H prefix)

biological target: T2, full-length human FGFR1c on HEK293/hFGFR1c/SRE-luc cells (human, UniProt P11362 22-822); experiment: FACS on stable HEK293 cells
T2 construct: amino acids 1-733 of NP_075593
Method: (§1) To determine binding specificity of the monoclonal anti-KLB/FGFR1c antibodies, the antibodies were tested in a fluorescence-activated cell sorting (FACS) binding assay to cell lines expressing human FGFR1c, human KLB, and both human FGFR1c and human KLB. HEK293 cell lines were generated that stably express full-length human FGFR1c (hFGFR1c; SEQ ID NO:433) or full-length human KLB (hKLB; SEQ ID NO:434) or both human FGFR1c and human KLB, along with a luciferase reporter [SRE (serum response element)-luciferase, SA Bioscience, #CLS-010L]. The resulting cell lines, referred to as HEK293/hFGFR1c/SRE-luc, HEK293/hKLB/SRE-luc, and HEK293/hKLB/hFGFR1c/SRE-luc, respectively, were maintained in DMEM supplemented with 10% FBS, NEAA, penicillin/streptomycin, 1 μg/mL puromycin and […] hygromycin B, 1 μg/mL puromycin and 500 μg/mL G418, or all three antibiotics.
(§2) For the FACS analysis, HEK293 parental, HEK293/hFGFR1c/SRE-luc, HEK293/hKLB/SRE-luc, and HEK293/hKLB/hFGFR1c/SRE-luc cells were dissociated and plated onto 96-well v-bottom plates at 5 x 10⁵ cells/well in PBS containing 1% FBS. […] Cells were filtered and subsequently analyzed on a Hypercyte Flow Cytometer (Intellicyt Corp.). Unstained and secondary antibody alone controls were also tested for binding to all cell lines. The results were analyzed using FlowJo version 9.52 software and geometric mean (Geom. Mean) of fluorescence for viable cells was determined. Geom. mean of fluorescence for each antibody was then normalized to Geom. mean of unstained cells to obtain relative binding of antibody (binding ratios) per each cell type.

T2 sequence (P11362 other isoform, or with tags, fused parts or gaps limits assumed): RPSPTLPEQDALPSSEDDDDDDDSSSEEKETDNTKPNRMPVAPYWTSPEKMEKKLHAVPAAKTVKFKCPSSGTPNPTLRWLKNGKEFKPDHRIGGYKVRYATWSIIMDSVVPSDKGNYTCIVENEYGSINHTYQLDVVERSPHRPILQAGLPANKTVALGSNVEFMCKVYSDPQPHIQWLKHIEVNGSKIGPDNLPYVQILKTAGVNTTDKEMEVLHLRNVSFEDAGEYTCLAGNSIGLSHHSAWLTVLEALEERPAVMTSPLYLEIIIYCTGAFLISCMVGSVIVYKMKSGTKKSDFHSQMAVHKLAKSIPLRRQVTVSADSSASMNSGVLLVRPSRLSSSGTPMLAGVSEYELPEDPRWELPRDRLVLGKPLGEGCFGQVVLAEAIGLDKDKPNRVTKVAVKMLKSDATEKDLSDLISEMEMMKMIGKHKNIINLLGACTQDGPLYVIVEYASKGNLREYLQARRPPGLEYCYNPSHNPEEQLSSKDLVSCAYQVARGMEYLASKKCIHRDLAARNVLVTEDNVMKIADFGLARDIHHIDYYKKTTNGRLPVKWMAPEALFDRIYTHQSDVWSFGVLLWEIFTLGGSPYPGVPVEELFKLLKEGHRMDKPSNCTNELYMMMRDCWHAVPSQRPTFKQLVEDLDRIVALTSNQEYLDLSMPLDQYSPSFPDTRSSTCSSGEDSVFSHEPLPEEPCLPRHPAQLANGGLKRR

binding ratio to unstained cells [fold] | Binder
6 | B1
2 | B2
2 | B3
7 | B4
5 | B5
1 | B6
1 | B7
1 | B8
1 | B9
5 | B10
5 | B11
2 | B12
1 | B13
2 | B14

biological target: T3, human KLB and human FGFR1c co-expressed on HEK293/hKLB/hFGFR1c/SRE-luc cells (human, UniProt Q86Z14 1-1044; P11362 22-822); experiment: FACS on stable HEK293 cells
T3 construct: two receptors co-expressed on one cell line; also called KLB/FGFR1c coreceptor; FGF21R
Method: as §1, §2

binding ratio to unstained cells [fold] | Binder
7 | B1
35 | B2
33 | B3
58 | B4
4 | B5
33 | B6
30 | B7
33 | B8
41 | B9
4 | B10
4 | B11
35 | B12
23 | B13
33 | B14

biological target: T1, full-length human KLB on …; experiment: FACS on stable HEK293 cells
Method: as §1, §2

binding ratio to unstained cells [fold] | Binder
2 | B1
15 | B2
13 | B3
21 | B4
3 | B5
7 | B6
5 | B7
7 | B8
15 | B9
5 | B10
4 | B11
11 | B12
11 | B13
13 | B14

biological target: T3, human KLB and human FGFR1c co-expressed …; experiment: cell-based or functional assay
Target sequence in this assay (P11362 other isoform, or with tags, fused parts or gaps limits assumed): as above

Maximum Inhibition (%) | Binder
10 | B11
